According to paper PMC9417184:
Each block holds one substance with its values, some of them ahead of it.

Assays:
[1] = biological target: Gallionella sp. form II RuBisCO R98A (Gallionella sp.); test: SEC-MALS + other: SAXS; SEC-SAXS-MALS; RuBisCO at 2 to 5 mg/ml, activated with excess NaHCO3; Shodex KW-803 column; 20 mM Hepes-OH pH 8.0, 300 mM NaCl, 10 mM MgCl2, 10 mM NaHCO3; oligomeric state of the enzyme
[2] = biological target: Gallionella sp. form II RuBisCO R131A (Gallionella sp.); test: as above
[3] = biological target: Gallionella sp. form II RuBisCO, wild type (GWS1B) (Gallionella sp.); test: as above
[4] = biological target: Insolitispirillum peregrinum form II RuBisCO, wild type (Insolitispirillum peregrinum); test: as above
[5] = biological target: Rhodospirillaceae bacterium BRH_c57 form II RuBisCO (Rhodospirillaceae bacterium BRH_c57); test: as above
[6] = biological target: Rhodospirillaceae bacterium BRH_c57 form II RuBisCO (Rhodospirillaceae bacterium BRH_c57); test: crystal structure; X-ray; RuBisCO activated and incubated with a tenfold molar excess of CABP; molecular replacement
[7] = biological target: Sulfurivirga caldicuralii form II RuBisCO (Sulfurivirga caldicuralii); test: SEC-MALS + other: SAXS; SEC-SAXS-MALS; RuBisCO at 2 to 5 mg/ml, activated with excess NaHCO3; Shodex KW-803 column; 20 mM Hepes-OH pH 8.0, 300 mM NaCl, 10 mM MgCl2, 10 mM NaHCO3; oligomeric state of the enzyme
[8] = biological target: Sulfurivirga caldicuralii form II RuBisCO (Sulfurivirga caldicuralii); test: crystal structure; X-ray; RuBisCO activated and incubated with a tenfold molar excess of CABP; molecular replacement

- stoichiometry N [2]: 2
Substance: Gallionella sp. form II RuBisCO R131A (enzyme)

- stoichiometry N [4]: 2
Substance: Insolitispirillum peregrinum form II RuBisCO, wild type (enzyme)

- stoichiometry N [7]: 4
- stoichiometry N [8]: 4
Substance: Sulfurivirga caldicuralii form II RuBisCO (enzyme)

Further lines, the substance ahead of its results:

Substance: Gallionella sp. form II RuBisCO R98A (enzyme)
- stoichiometry N [1]: 2

Substance: Gallionella sp. form II RuBisCO, wild type (GWS1B) (enzyme)
- stoichiometry N [3]: 6

Substance: Rhodospirillaceae bacterium BRH_c57 form II RuBisCO (enzyme)
- stoichiometry N [5]: 6
- stoichiometry N [6]: 6
